The assay addresses T1, human amylin receptor (AMY3) on CHO-K1/Ga15/AMY3 amylin receptor/CRE-luc cells (human, UniProt P30988 25-474; O60896 24-148).
T1 sequence (looked up) 1: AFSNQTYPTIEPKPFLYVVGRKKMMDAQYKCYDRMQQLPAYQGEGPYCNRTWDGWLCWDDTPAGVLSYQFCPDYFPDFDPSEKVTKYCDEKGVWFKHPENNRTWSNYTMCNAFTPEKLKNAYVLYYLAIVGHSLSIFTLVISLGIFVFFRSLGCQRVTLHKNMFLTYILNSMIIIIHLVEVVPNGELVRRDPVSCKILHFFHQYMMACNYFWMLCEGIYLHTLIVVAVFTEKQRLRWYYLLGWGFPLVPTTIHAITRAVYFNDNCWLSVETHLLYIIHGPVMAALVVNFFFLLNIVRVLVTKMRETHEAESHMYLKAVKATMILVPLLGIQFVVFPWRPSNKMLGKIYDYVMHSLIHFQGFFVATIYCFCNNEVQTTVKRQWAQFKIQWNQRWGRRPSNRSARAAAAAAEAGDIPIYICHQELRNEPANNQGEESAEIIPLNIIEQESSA
T1 sequence (looked up) 2: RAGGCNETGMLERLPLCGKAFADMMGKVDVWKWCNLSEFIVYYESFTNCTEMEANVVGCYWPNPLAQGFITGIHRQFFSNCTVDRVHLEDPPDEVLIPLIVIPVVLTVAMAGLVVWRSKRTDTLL
Kind of assay: cell-based or functional assay.

Two molecules from patent EP4663654A1 (Hangzhou Sciwind Biosciences Co., Ltd., dated 2025) can be followed below.

Starred links: 1 amine or outer side, 2 acyl side, 3 side chain; linkers in the order of their positions; H or OH if unused. Non-standard residues stand in square brackets, D forms with d. *: point of attachment. C20 diacid = O=C(O)CCCCCCCCCCCCCCCCCCC(=O)*; γGlu = O=C(O)[C@H](CCC(=O)[*:2])N[*:1]; Hyp = O=C(O)[C@@H]1C[C@@H](O)CN1

B1: polypeptide derivative M1 (peptide)
peptide: {C20 diacid-γGlu}-ASELSTAALGRLADFLRHSSNNLKPILPPTNVGSNT[Hyp]-NH2
SMILES: CC[C@H](C)[C@H](NC(=O)[C@@H]1CCCN1C(=O)[C@H](CCCCN)NC(=O)[C@H](CC(C)C)NC(=O)[C@H](CC(N)=O)NC(=O)[C@H](CC(N)=O)NC(=O)[C@H](CO)NC(=O)[C@H](CO)NC(=O)[C@H](Cc1c[nH]cn1)NC(=O)[C@H](CCCNC(=N)N)NC(=O)[C@H](CC(C)C)NC(=O)[C@H](Cc1ccccc1)NC(=O)[C@H](CC(=O)O)NC(=O)[C@H](C)NC(=O)[C@H](CC(C)C)NC(=O)[C@H](CCCNC(=N)N)NC(=O)CNC(=O)[C@H](CC(C)C)NC(=O)[C@H](C)NC(=O)[C@H](C)NC(=O)[C@@H](NC(=O)[C@H](CO)NC(=O)[C@H](CC(C)C)NC(=O)[C@H](CCC(=O)O)NC(=O)[C@H](CO)NC(=O)[C@H](C)NC(=O)CC[C@H](NC(=O)CCCCCCCCCCCCCCCCCCC(=O)O)C(=O)O)[C@@H](C)O)C(=O)N[C@@H](CC(C)C)C(=O)N1CCC[C@H]1C(=O)N1CCC[C@H]1C(=O)N[C@H](C(=O)N[C@@H](CC(N)=O)C(=O)N[C@H](C(=O)NCC(=O)N[C@@H](CO)C(=O)N[C@@H](CC(N)=O)C(=O)N[C@H](C(=O)N1C[C@H](O)C[C@H]1C(N)=O)[C@@H](C)O)C(C)C)[C@@H](C)O
Regarding B1, the “EC50/nM, CRE-luciferase reporter in amylin receptor/CRE-luc CHO cells” value came to 0.053 nM and the “Relative activity (the EC50 ratio of Cagrilintide to the compound)” value amounted to 49%.

B2: polypeptide derivative M5 (peptide)
peptide: {C20 diacid-γGlu}-ASQLSTAATQRLADFLRHSSNNLKPILPPTNVGSNT[Hyp]-NH2
SMILES: CC[C@H](C)[C@H](NC(=O)[C@@H]1CCCN1C(=O)[C@H](CCCCN)NC(=O)[C@H](CC(C)C)NC(=O)[C@H](CC(N)=O)NC(=O)[C@H](CC(N)=O)NC(=O)[C@H](CO)NC(=O)[C@H](CO)NC(=O)[C@H](Cc1c[nH]cn1)NC(=O)[C@H](CCCNC(=N)N)NC(=O)[C@H](CC(C)C)NC(=O)[C@H](Cc1ccccc1)NC(=O)[C@H](CC(=O)O)NC(=O)[C@H](C)NC(=O)[C@H](CC(C)C)NC(=O)[C@H](CCCNC(=N)N)NC(=O)[C@H](CCC(N)=O)NC(=O)[C@@H](NC(=O)[C@H](C)NC(=O)[C@H](C)NC(=O)[C@@H](NC(=O)[C@H](CO)NC(=O)[C@H](CC(C)C)NC(=O)[C@H](CCC(N)=O)NC(=O)[C@H](CO)NC(=O)[C@H](C)NC(=O)CC[C@H](NC(=O)CCCCCCCCCCCCCCCCCCC(=O)O)C(=O)O)[C@@H](C)O)[C@@H](C)O)C(=O)N[C@@H](CC(C)C)C(=O)N1CCC[C@H]1C(=O)N1CCC[C@H]1C(=O)N[C@H](C(=O)N[C@@H](CC(N)=O)C(=O)N[C@H](C(=O)NCC(=O)N[C@@H](CO)C(=O)N[C@@H](CC(N)=O)C(=O)N[C@H](C(=O)N1C[C@H](O)C[C@H]1C(N)=O)[C@@H](C)O)C(C)C)[C@@H](C)O
B2: the “EC50/nM, CRE-luciferase reporter in amylin receptor/CRE-luc CHO cells” value amounted to 0.031 nM and the “Relative activity (the EC50 ratio of Cagrilintide to the compound)” value was found to be 84%.
